Values of other authors, collected in article PMC8495453.

Target: Galectin-3 (Homo sapiens) (UniProt P17931)
Sequence (P17931 2-250): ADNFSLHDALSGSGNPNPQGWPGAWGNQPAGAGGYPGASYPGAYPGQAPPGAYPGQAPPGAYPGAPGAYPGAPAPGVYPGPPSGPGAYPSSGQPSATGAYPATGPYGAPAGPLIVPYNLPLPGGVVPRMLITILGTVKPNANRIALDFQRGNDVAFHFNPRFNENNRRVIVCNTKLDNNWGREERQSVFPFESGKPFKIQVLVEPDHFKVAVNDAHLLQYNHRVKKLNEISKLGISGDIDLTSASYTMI

LAMP1 29-382, sequence (P11279 29-382): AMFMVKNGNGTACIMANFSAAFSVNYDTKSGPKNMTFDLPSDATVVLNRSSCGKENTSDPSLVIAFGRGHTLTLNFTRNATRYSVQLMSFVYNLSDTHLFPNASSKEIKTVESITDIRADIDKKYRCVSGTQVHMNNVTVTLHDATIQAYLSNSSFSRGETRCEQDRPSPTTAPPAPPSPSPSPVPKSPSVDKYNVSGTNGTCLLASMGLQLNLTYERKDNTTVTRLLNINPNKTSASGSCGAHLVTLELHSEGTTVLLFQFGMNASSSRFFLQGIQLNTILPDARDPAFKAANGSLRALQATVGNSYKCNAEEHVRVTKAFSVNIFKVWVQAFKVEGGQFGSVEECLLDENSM

LAMP1 29-382 (from UniProt P11279)
Kd: < 0.025 µM
